In test [1] the target is BSA (bovine) (UniProt P02769). Nature of the test: ELISA, BSA coated as negative control, binder 1 µg/mL, chemiluminescence.
In test [2] the target is BSA (bovine) (UniProt P02769). The description is as above. The source holds these as a separate data set.

Where two headings read alike, the source gives them in different places.

5 substances from patent US20240255507A1 can be followed below.

BSA (bovine), sequence (P02769 25-607 limits assumed): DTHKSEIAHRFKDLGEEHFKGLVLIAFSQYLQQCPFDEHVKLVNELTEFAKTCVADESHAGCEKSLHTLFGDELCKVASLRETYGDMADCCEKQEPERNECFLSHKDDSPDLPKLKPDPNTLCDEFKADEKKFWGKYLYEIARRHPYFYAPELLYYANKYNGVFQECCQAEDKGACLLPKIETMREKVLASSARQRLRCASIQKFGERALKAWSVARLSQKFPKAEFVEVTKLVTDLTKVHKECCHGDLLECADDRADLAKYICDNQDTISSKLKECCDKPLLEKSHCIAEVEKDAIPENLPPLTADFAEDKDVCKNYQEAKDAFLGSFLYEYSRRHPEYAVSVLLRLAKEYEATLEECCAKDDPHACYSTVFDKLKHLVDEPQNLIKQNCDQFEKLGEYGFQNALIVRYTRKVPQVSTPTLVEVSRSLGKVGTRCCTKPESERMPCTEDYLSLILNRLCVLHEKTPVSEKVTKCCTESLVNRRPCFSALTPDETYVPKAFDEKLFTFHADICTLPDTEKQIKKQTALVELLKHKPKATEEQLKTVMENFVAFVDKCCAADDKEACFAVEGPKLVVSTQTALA
BD23 (antibody), sequence (VH): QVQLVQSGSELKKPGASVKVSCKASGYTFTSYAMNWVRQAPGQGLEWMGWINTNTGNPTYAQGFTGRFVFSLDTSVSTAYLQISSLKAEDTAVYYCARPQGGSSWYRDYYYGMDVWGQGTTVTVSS
BD23 (antibody), sequence (VL): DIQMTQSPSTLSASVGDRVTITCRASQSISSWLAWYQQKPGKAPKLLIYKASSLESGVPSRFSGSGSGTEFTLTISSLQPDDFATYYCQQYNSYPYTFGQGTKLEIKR
CR3022 (antibody), sequence (VH): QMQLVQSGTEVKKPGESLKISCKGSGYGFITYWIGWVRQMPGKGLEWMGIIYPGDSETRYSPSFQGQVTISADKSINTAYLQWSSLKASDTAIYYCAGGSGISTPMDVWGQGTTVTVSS
CR3022 (antibody), sequence (VL): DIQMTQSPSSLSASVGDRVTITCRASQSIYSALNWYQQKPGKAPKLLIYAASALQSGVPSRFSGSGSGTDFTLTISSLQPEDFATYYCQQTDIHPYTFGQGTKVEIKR

BD23 (antibody): the signal intensity was found to be 13 with BSA (bovine) [1] and 83 with BSA (bovine) [2].
Take CR3022 (antibody): the signal intensity with BSA (bovine) [1] was determined as 63; in the test with BSA (bovine) [2] it was 53.
For CV30 (antibody), in that order: 73 and 33.
For REGN10933 (antibody), the signal intensity in the test with BSA (bovine) [1] stood at 53; with BSA (bovine) [2], 63.
REGN10987 (antibody): the signal intensity came to 43 in the test with BSA (bovine) [1] and 63 in the test with BSA (bovine) [2].
